Data as given in PMC5778036.

Molecular target: CCR5 expressed on the surface of pancreatic cancer cells (human (endogenous in AsPC-1, BxPC-3, MIA PaCa-2)) (UniProt P51681)
Chain of UniProt P51681 (P51681 whole entry): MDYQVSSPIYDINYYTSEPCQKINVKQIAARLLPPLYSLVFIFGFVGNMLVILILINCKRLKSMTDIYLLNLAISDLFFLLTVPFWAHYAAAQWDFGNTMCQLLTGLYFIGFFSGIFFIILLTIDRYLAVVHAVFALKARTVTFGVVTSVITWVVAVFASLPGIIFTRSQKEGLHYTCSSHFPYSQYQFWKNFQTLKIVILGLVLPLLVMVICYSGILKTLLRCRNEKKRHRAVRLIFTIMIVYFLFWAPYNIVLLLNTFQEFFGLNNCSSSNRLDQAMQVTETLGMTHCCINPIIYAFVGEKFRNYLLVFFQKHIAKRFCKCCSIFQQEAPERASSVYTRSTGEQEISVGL

- CCR5 mRNA (qRT-PCR) in AsPC-1 cells in presence of CCL5, fold against untreated; decreased by maraviroc: 11 fold
- CCR5 mRNA (qRT-PCR) in BxPC-3 cells in presence of CCL5, fold against untreated; decreased by maraviroc: 7 fold
- CCR5 mRNA (qRT-PCR) in MIA PaCa-2 cells in presence of CCL5, fold against untreated; decreased by maraviroc: 4 fold
Substance: CCL5 (CC chemokine ligand 5) recombinant protein (from UniProt P13501 24-91)
